{"source": "the RNAGym collection of RNA variant scans (doi:10.1073/pnas.2313332121)", "parents": {"B1": {"name": "TPR t1 (parent)", "chain": "GACCAAUCUGCCCUCAGAGCUCGAGAACAUCUUCGGAUGCAGAGGAGGCAGGCUUCGGUGGCGCGAUAGCGCCAACGUCCUCAACCUCCAAUGCAUCCCACCACAUGAUGAUGCCUGAAGAGCCUUGGUUUUUUG"}}}
{"variants_of": "B1", "experiment": "polymerase ribozyme fitness, log enrichment relative to wild type (log ratio); higher = more active; in vitro selection for triplet polymerase activity", "procedure,_shortened": "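Input and output libraries were sequenced on Illumina after a single in vitro selection round, run in triplicate on PCR-built, transcribed mutant libraries of each subunit of a heterodimeric triplet polymerase ribozyme. Selection annealed libraries to a biotinylated primer, the partner subunit and triplets, incubated them frozen at −7 °C, then gel-excised extended constructs for streptavidin-bead capture and RT-PCR. Genotypes with ≥10 input reads and ≥1 read per output were kept. Fitness is the logarithm, taken in base 2, of genotype enrichment divided by wild-type enrichment, using inverse-variance-weighted replicate averages.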"}
{"variant": "A6G A95C", "polymerase ribozyme fitness (log ratio)": -1.16}
{"variant": "A6U C8U C40U A43U G48C U132A", "polymerase ribozyme fitness (log ratio)": -1.71}
{"variant": "A6U U9G C40G G60U C80U U126C U131A", "polymerase ribozyme fitness (log ratio)": -3.72}
{"variant": "A6G C49U G69U", "polymerase ribozyme fitness (log ratio)": -0.168}
{"variant": "A6U U7A A16C A46U C76A A84C A100C C124A", "polymerase ribozyme fitness (log ratio)": -5.09}
{"variant": "A6U C62A A111U G122A", "polymerase ribozyme fitness (log ratio)": -5.22}
{"variant": "A6U C56G C76U C86A A90G", "polymerase ribozyme fitness (log ratio)": -1.7}
{"variant": "A6G G61U", "polymerase ribozyme fitness (log ratio)": -0.271}
{"variant": "A6U G63C", "polymerase ribozyme fitness (log ratio)": -0.899}
{"variant": "A6U G63A", "polymerase ribozyme fitness (log ratio)": -0.932}
{"variant": "A6U C8U C70A C101G", "polymerase ribozyme fitness (log ratio)": -3.42}
{"variant": "A6U G48U C56G C82A", "polymerase ribozyme fitness (log ratio)": -1.65}
{"variant": "A6G C12G A27U G113U U125A", "polymerase ribozyme fitness (log ratio)": -7.04}
{"variant": "A6G U7C C12U G23U C70U C72A U87G", "polymerase ribozyme fitness (log ratio)": -6.73}
{"variant": "A6U U33A", "polymerase ribozyme fitness (log ratio)": -4.02}
{"variant": "A6U G48U C64U U81G", "polymerase ribozyme fitness (log ratio)": -4.27}
{"variant": "U7A C28G", "polymerase ribozyme fitness (log ratio)": -2.71}
{"variant": "U7A A16C G63A A121U", "polymerase ribozyme fitness (log ratio)": -0.146}
{"variant": "A6U A100C U106A", "polymerase ribozyme fitness (log ratio)": 0.0954}
{"variant": "U7A C13U C22G A103C U130C", "polymerase ribozyme fitness (log ratio)": -4.17}
{"variant": "A6U G48U C53A", "polymerase ribozyme fitness (log ratio)": -0.649}
{"variant": "A6U C13A U21C G69A C82A", "polymerase ribozyme fitness (log ratio)": -2.61}
{"variant": "A6U G60A U81A C99U", "polymerase ribozyme fitness (log ratio)": -5.5}
{"variant": "A6G G48A G71C G117A", "polymerase ribozyme fitness (log ratio)": -2.1}
{"variant": "A6G C13U C98U A119U", "polymerase ribozyme fitness (log ratio)": -2.09}
{"variant": "A6G C72G G117U A121U G127A", "polymerase ribozyme fitness (log ratio)": -2.18}
{"variant": "A6U C20A G69U C85A", "polymerase ribozyme fitness (log ratio)": -4.42}
{"variant": "A6U A75U C82A C115A U125A G128C", "polymerase ribozyme fitness (log ratio)": -3.75}
{"variant": "A6G C72G C88U C123A", "polymerase ribozyme fitness (log ratio)": 0.738}
{"variant": "U7A A29G C64U C88A C104A", "polymerase ribozyme fitness (log ratio)": -1.32}
{"variant": "A6U G52U", "polymerase ribozyme fitness (log ratio)": -1.52}
{"variant": "A6U G52A", "polymerase ribozyme fitness (log ratio)": -2.05}
{"variant": "A6G U21C C114A", "polymerase ribozyme fitness (log ratio)": -0.942}
{"variant": "U7A C13U G36A G69U", "polymerase ribozyme fitness (log ratio)": -0.408}
{"variant": "A6G C82G U87A A90U", "polymerase ribozyme fitness (log ratio)": -2.92}
{"variant": "A6G U7C", "polymerase ribozyme fitness (log ratio)": -0.442}
{"variant": "A6G C73U G117C", "polymerase ribozyme fitness (log ratio)": -2.3}
{"variant": "A6U C22A C49U", "polymerase ribozyme fitness (log ratio)": -4.97}
{"variant": "A6U G117U", "polymerase ribozyme fitness (log ratio)": -2.79}
{"variant": "A6U C56U C97A", "polymerase ribozyme fitness (log ratio)": -6.51}
{"variant": "A6U A90U", "polymerase ribozyme fitness (log ratio)": -0.93}
{"variant": "A6U G60U G110U", "polymerase ribozyme fitness (log ratio)": -0.996}
{"variant": "U7A C15A C101A U112A", "polymerase ribozyme fitness (log ratio)": 0.0193}
{"variant": "A6U G45U C49U C76G", "polymerase ribozyme fitness (log ratio)": -0.941}
{"variant": "A6U A37G G127C G135U", "polymerase ribozyme fitness (log ratio)": -1.84}
{"variant": "U7A A18G C20A G39A C70U U116C G120U C123U C124A", "polymerase ribozyme fitness (log ratio)": -6.7}
{"variant": "A6U C53U C88U", "polymerase ribozyme fitness (log ratio)": -0.366}
{"variant": "A6U A16G G63U C89U", "polymerase ribozyme fitness (log ratio)": -3.25}
{"variant": "A6G C12U U30C A108G", "polymerase ribozyme fitness (log ratio)": 0.259}
{"variant": "A6U G10A C22U C82A", "polymerase ribozyme fitness (log ratio)": -5.33}
{"variant": "A6U G44A C94A", "polymerase ribozyme fitness (log ratio)": -1.69}
{"variant": "A6U A95C", "polymerase ribozyme fitness (log ratio)": -0.905}
{"variant": "A6U C49A C62U C70G C104A U125A", "polymerase ribozyme fitness (log ratio)": -7.09}
{"variant": "A6U G93A", "polymerase ribozyme fitness (log ratio)": -0.555}
{"variant": "U7A C11G A37U G60U G93C", "polymerase ribozyme fitness (log ratio)": -0.83}
{"variant": "A6U C15U", "polymerase ribozyme fitness (log ratio)": -1.43}
{"variant": "A6U G61U G117A", "polymerase ribozyme fitness (log ratio)": -0.538}
{"variant": "A6U C99U C115U", "polymerase ribozyme fitness (log ratio)": -7.34}
{"variant": "A6U A50U", "polymerase ribozyme fitness (log ratio)": -0.776}
{"variant": "A6G G61C C89U", "polymerase ribozyme fitness (log ratio)": -2.67}
{"variant": "A6U G36A G71U", "polymerase ribozyme fitness (log ratio)": -0.709}
{"variant": "A6U C89U", "polymerase ribozyme fitness (log ratio)": -0.0502}
{"variant": "A6U C49U G60A C94G G113A", "polymerase ribozyme fitness (log ratio)": -3.92}
{"variant": "A6U C12U C76A C115U", "polymerase ribozyme fitness (log ratio)": -2.81}
{"variant": "A6U G45C C72G C101U G110C", "polymerase ribozyme fitness (log ratio)": -4.94}
{"variant": "A6U A18U C76U", "polymerase ribozyme fitness (log ratio)": -2.81}
{"variant": "A6U G48U C72U C94U A111C", "polymerase ribozyme fitness (log ratio)": -0.448}
{"variant": "A6U G69U G113A", "polymerase ribozyme fitness (log ratio)": -0.642}
{"variant": "A6G U9A C34U", "polymerase ribozyme fitness (log ratio)": -3.96}
{"variant": "A6U C72G U78G U130C", "polymerase ribozyme fitness (log ratio)": -0.0449}
{"variant": "U7A C8U G60C", "polymerase ribozyme fitness (log ratio)": -0.91}
{"variant": "A6G U38G G47U G117A G120C", "polymerase ribozyme fitness (log ratio)": -5.06}
{"variant": "A6U C11U", "polymerase ribozyme fitness (log ratio)": 0.0672}
{"variant": "A6U G36U", "polymerase ribozyme fitness (log ratio)": -1.07}
{"variant": "A6U G36C", "polymerase ribozyme fitness (log ratio)": -1.42}
{"variant": "A6U U78C", "polymerase ribozyme fitness (log ratio)": 0.144}
{"variant": "A6G U7A C53U C80G C101A", "polymerase ribozyme fitness (log ratio)": -5.66}
{"variant": "A6U A83U C115U", "polymerase ribozyme fitness (log ratio)": -1.65}
{"variant": "A6U U112A", "polymerase ribozyme fitness (log ratio)": 0.759}
{"variant": "A6U A105C U116C", "polymerase ribozyme fitness (log ratio)": -6.02}
{"variant": "A6G G63C", "polymerase ribozyme fitness (log ratio)": 0.397}
{"variant": "A6G G63U", "polymerase ribozyme fitness (log ratio)": -1.16}
{"variant": "A6U C70A C124A", "polymerase ribozyme fitness (log ratio)": 0.175}
{"variant": "A6U A46U U116A", "polymerase ribozyme fitness (log ratio)": -4.28}
